US20170306018A1 (Bristol-Myers Squibb, published 2017)
Values joined by “and” are separate entries in the source; they are usually repeats but may differ in a detail not shown here. Equal values may be shown once.

Assays:
human ROR1 [1] = target: T1, human ROR1 (human, UniProt Q01973 30-937); assay: cell-based or functional assay
human CD3ε = target: T2, human CD3ε (human, UniProt P07766 23-207); assay: flow cytometry on Jurkat T cells
T2 construct: whole, on cells; CD3 on human leukemic Jurkat T cells, as part of the TCR/CD3 complex; also called CD3 epsilon
Protocol: Anti-ROR1/anti-CD3 T cell bispecific antibodies generated in Example 5 were analyzed by flow cytometry for their binding to human ovarian cancer cell lines PA-1 and SK-OV-3 and human CD3 expressed on human leukemic T cells Jurkat (ATCC TIB-152). Jurkat T cells were cultured in RPMI1640 medium supplemented with 10% fetal calf serum. Briefly, cultured cells were harvested, counted and cell viability is evaluated using ViCell. Viable cells were then adjusted to 2×10⁶ cells per ml in FACS Stain Buffer (BD Biosciences) containing 0.1% BSA. 100 μl of this cell suspension were further aliquoted per well into a round-bottom 96-well plate. […] After incubation for 30 min at 4° C., cells are centrifuged (5 min, 350×g), washed twice with 150 μl/well BSA-containing FACS Stain Buffer (BD Biosciences), then cells are fixed using 100 ul BD Fixation buffer per well (#BD Biosciences, 554655) at 4° C. for 20 min, resuspended in 120 μl FACS buffer and analyzed using BD FACS CantoII. Binding of the anti-ROR1/anti-CD3 T cell bispecific antibodies to human ovarian cancer cells and T cells were evaluated and the median fluorescence intensity was determined gated on either human ovarian cancer cells or CD3-expressing Jurkat T cells and plotted in histograms and dot plots. […] Median fluorescence intensity for anti-ROR1/anti-CD3 T cell bispecific antibodies in function of antibody concentrations were plotted.

human ROR1 [2] = target: T1, human ROR1; assay: flow cytometry on PA-1 cells
Protocol: (§1) a) The level of expression of ROR1 was measured on human ovarian cancer cell lines by flow cytometry including PA-1, COLO-704, ES-2, SK-OV-3, and OVCAR-5. Briefly, cells were harvested, washed, counted for viability, resuspended at 50,000 cells/well of a 96-well round bottom plate and incubated with Alexa488-labeled anti human ROR1 antibody for 30 min at 4° C. All ROR1 and isotype control antibodies were titrated and analyzed in final concentration range between 0.01-100 nM (0.0015-15 μg/mL). […] At the end of incubation time, cells were centrifuged (5 min at 350×g), washed twice with FACS buffer, resuspended in 100 ul FACS buffer and analyzed on a CantoII device running FACS Diva software. Expression of ROR1 was then quantified as the median fluorescence intensity (MFI) and graphs showing the MFI in function of ROR1 antibody concentrations were plotted. EC50 values were then measured using Prism software (GraphPad). […] The calculated EC50s for binding of ROR1 Mab1 and ROR1 Mab2 to SK-OV-3 are extrapolated values and may be over- or underestimated. […]

human ROR1 [3] = target: T1, human ROR1; assay: flow cytometry on SK-OV-3 cells (extrapolated value)
Protocol: as §1

human ROR1 [4] = target: T1, human ROR1; assay: flow cytometry on RPMI8226 cells
Protocol: a) ROR1 expression was assessed on primary CD19⁺ CD5⁺ CLL cells by flow cytometry. Briefly, cells were harvested, washed, counted for viability, resuspended at 50 000 cells/well of a 96-well round bottom plate and incubated with Alexa488-labeled anti human ROR1 antibody at 10 μg/ml for 30 min at 4° C. (to prevent internalization). At the end of incubation time, cells were centrifuged (5 min at 350×g), washed twice with FACS buffer, resuspended in 100 ul FACS buffer and analyzed on a CantoII device running FACS Diva software.
b) ROR1 expression was then assessed on B lymphocyte myeloma RPMI8226 cell lines by flow cytometry, using the methods described above.

T1 sequence (Q01973 30-937 limits assumed): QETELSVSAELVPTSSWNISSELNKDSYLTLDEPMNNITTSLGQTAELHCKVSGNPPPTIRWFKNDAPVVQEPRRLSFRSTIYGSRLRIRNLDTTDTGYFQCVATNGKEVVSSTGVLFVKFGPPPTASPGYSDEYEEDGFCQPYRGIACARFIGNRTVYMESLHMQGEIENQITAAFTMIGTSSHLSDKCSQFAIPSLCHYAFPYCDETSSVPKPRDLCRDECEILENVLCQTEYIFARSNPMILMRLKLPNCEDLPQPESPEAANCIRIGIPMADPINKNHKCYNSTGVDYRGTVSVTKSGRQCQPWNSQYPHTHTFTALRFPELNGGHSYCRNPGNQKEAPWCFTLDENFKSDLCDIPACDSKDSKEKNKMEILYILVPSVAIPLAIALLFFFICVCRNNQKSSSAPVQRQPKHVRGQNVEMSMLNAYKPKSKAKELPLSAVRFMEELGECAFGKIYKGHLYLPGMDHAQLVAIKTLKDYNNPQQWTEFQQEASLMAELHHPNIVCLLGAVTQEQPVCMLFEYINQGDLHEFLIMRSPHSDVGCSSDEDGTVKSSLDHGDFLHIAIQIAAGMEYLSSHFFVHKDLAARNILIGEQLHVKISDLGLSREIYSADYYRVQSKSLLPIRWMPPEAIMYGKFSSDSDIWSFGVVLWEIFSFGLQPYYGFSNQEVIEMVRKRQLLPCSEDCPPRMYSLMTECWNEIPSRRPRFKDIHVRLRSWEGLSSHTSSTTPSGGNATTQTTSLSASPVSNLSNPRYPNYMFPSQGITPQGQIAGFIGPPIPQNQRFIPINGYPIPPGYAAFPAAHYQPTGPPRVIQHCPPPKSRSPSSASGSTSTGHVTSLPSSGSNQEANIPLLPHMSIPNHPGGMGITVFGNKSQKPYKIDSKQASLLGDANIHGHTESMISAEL
T2 sequence (P07766 23-207): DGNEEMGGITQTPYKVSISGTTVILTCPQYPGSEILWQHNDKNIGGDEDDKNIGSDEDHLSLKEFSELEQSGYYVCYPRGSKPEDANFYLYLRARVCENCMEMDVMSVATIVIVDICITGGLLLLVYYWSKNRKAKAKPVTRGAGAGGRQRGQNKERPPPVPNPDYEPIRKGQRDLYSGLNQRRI

Binder	Mean EC50 (ng/mL), cell lysis of COLO-704 (n = 1), LDH release (human ROR1 [1]) [ng/mL]	Mean EC50 (ng/mL), cell lysis of OVCAR-5 (n = 1), LDH release (human ROR1 [1]) [ng/mL]	Mean EC50 (ng/mL), cell lysis of PA-1 (n = 2), LDH release (human ROR1 [1]) [ng/mL]	Mean EC50 (ng/mL), cell lysis of SKOV-3 (n = 5), LDH release (human ROR1 [1]) [ng/mL]	Mean EC50 (pM), cell lysis of COLO-704 (n = 1), LDH release (human ROR1 [1]) [pM]	Mean EC50 (pM), cell lysis of OVCAR-5 (n = 1), LDH release (human ROR1 [1]) [pM]	Mean EC50 (pM), cell lysis of PA-1 (n = 2), LDH release, PBMC E:T 10:1 (human ROR1 [1]) [pM]	Mean EC50 (pM), cell lysis of SKOV-3 (n = 5), LDH release (human ROR1 [1]) [pM]	binding result (human CD3ε)	EC50 (human ROR1 [2])	EC50 (human ROR1 [3])	EC50 (human ROR1 [4])
ROR1 Mab2-TCBcv (bispecific antibody, 2+1 TCB with charge variants, bivalent for ROR1 (Mab2) and monovalent for CD3; The chain set is printed under the name Mab2 ROR1-TCB (2+1); also called Mab2 ROR1-TCBcv; Mab2 ROR1-TCB (2+1)) heavy 1: not shown heavy 2: EVKLVESGGGLVKPGGSLKLSCAASGFTFSSYAMSWVRQIPEKRLEWVASISRGGTTYYPDSVKGRFTISRDNVRNILYLQMSSLRSEDTAMYYCGRYDYDGYYAMDYWGQGTSVTVSSASTKGPSVFPLAPSSKSTSGGTAALGCLVEDYFPEPVTVSWNSGALTSGVHTFPAVLQSSGLYSLSSVVTVPSSSLGTQTYICNVNHKPSNTKVDEKVEPKSCDKTHTCPPCPAPEAAGGPSVFLFPPKPKDTLMISRTPEVTCVVVDVSHEDPEVKFNWYVDGVEVHNAKTKPREEQYNSTYRVVSVLTVLHQDWLNGKEYKCKVSNKALGAPIEKTISKAKGQPREPQVCTLPPSRDELTKNQVSLSCAVKGFYPSDIAVEWESNGQPENNYKTTPPVLDSDGSFFLVSKLTVDKSRWQQGNVFSCSVMHEALHNHYTQKSLSLSPGK light 1: DIKMTQSPSSMYASLGERVTITCKASPDINSYLSWFQQKPGKSPKTLIYRANRLVDGVPSRFSGGGSGQDYSLTINSLEYEDMGIYYCLQYDEFPYTFGGGTKLEMKRTVAAPSVFIFPPSDRKLKSGTASVVCLLNNFYPREAKVQWKVDNALQSGNSQESVTEQDSKDSTYSLSSTLTLSKADYEKHKVYACEVTHQGLSSPVTKSFNRGEC light 2: EVQLLESGGGLVQPGGSLRLSCAASGFTFSTYAMNWVRQAPGKGLEWVSRIRSKYNNYATYYADSVKGRFTISRDDSKNTLYLQMNSLRAEDTAVYYCVRHGNFGNSYVSWFAYWGQGTLVTVSSASVAAPSVFIFPPSDEQLKSGTASVVCLLNNFYPREAKVQWKVDNALQSGNSQESVTEQDSKDSTYSLSSTLTLSKADYEKHKVYACEVTHQGLSSPVTKSFNRGEC	14.3	10.7	2.9	141	73.3	53.4	14.6	707	binds	–	–	–
ROR1 Mab2 IgG (antibody, V domains shown, Tested as IgG; also called Mab 4A5) VH: EVKLVESGGGLVKPGGSLKLSCAASGFTFSSYAMSWVRQIPEKRLEWVASISRGGTTYYPDSVKGRFTISRDNVRNILYLQMSSLRSEDTAMYYCGRYDYDGYYAMDYWGQGTSVTVSS VL: DIKMTQSPSSMYASLGERVTITCKASPDINSYLSWFQQKPGKSPKTLIYRANRLVDGVPSRFSGGGSGQDYSLTINSLEYEDMGIYYCLQYDEFPYTFGGGTKLEMK	–	–	–	–	–	–	–	–	–	0.095 µg/mL and 0.64 nM	~358 nM and ~53.4 µg/mL	–
anti-ROR1 IgG1 antibody (ROR1 Mab1) (antibody, V domains shown, Used Alexa488-labelled in some assays; also called anti-ROR1 antibody; anti-ROR1 IgG antibody) VH: QEQLVESGGRLVTPGGSLTLSCKASGFDFSAYYMSWVRQAPGKGLEWIATIYPSSGKTYYATWVNGRFTISSDNAQNTVDLQMNSLTAADRATYFCARDSYADDGALFNIWGPGTLVTISS VL: ELVLTQSPSVSAALGSPAKITCTLSSAHKTDTIDWYQQLQGEAPRYLMQVQSDGSYTKRPGVPDRFSGSSSGADRYLIIPSVQADDEADYYCGADYIGGYVFGGGTQLTVTG	–	–	–	–	–	–	–	–	no binding (tested: 3 nM to 500 nM)	0.87 nM and 0.13 µg/mL	~4.62 nM and ~0.69 µg/mL	0.087 nM and 0.013 µg/mL
